Results reported in patent US20150010495A1 (GLYCOTOPE, published 2015).

Target: T1, […]n, n = 5 (100-mer), non-glycosylated (human)
T1 construct: non-glycosylated MUC1 peptide with five tandem repeats in series
Experiment: peptide ELISA, OD 492 nm; limit of the class, member by Table 2; reference: 20-mer

ratio of the optical density 100-mer/20-mer: > 3
B1: HMFG-1 (antibody, V domains shown)
VH: QVQLVQSGAEVKKPGASVKVSCKASGYTFSAYWIEWVRQAPGKGLEWVGEILPGSNNSRYNEKFKGRVTVTRDTSTNTAYMELSSLRSEDTAVYYCARSYDFAWFAYWGQGTLVTVSS
VL: DIQMTQSPSSLSASVGDRVTITCKSSQSLLYSSNQKIYLAWYQQKPGKAPKLLIYWASTRESGVPSRFSGSGSGTDFTFTISSLQPEDIATYYCQQYYRYPRTFGQGTKVEIKR
